This is an account of results in PMC11751504.

Assay [1] concerns the target SidF C-trim (residues 1-443) (Aspergillus fumigatus) (UniProt Q4WF55). The assay is described as follows: SEC.
Assay [2] shares this target. The assay is described as follows: SAXS.

On to “SidF C-trim (residues 1-443) (from UniProt Q4WF55 1-443) (domain or fragment)”, for which the stoichiometry N in assay [1] worked out at 4; in assay [2] it was 2.
